From article PMC5758537

Columns and labels:
[1] = biological target: dopamine D2 receptor (rat, endogenous) (rat (endogenous in rat striatum)) (UniProt P61169); experiment: co-IP; rat NAc protein homogenates (300 ug), anti-D2R antibody overnight at 4 C, protein G/A, blot with anti-D1R; rats treated with saline or SKF 83959, with or without TAT-D1 (300 pmol, i.c.v.)
[2] = biological target: dopamine D2 receptor (rat, endogenous) (rat (endogenous in rat striatum)) (UniProt P61169); experiment: FRET or BRET; in situ confocal FRET on rat brain sections, NAc (core and shell); anti-D1R-Alexa 488 (donor) and anti-D2R-Alexa 568 (acceptor) directly conjugated

UniProt P61169, sequence (P61169 whole entry): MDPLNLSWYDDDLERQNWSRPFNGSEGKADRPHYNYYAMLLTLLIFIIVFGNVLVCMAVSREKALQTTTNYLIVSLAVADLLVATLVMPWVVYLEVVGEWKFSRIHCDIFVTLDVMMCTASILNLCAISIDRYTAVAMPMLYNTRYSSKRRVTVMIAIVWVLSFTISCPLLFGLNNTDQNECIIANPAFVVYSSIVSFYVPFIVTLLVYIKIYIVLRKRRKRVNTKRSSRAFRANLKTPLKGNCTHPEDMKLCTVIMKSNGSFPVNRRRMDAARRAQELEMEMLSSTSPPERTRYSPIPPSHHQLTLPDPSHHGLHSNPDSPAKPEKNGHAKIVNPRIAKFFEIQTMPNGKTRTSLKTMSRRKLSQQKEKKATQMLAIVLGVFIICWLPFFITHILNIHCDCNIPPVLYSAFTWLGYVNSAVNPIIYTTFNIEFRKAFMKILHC

TAT-D1 peptide was tested, and the percent decrease of D1R co-immunoprecipitated with D2R [1] was > 50%.
Substance “dopamine D1 receptor (rat, endogenous) (from UniProt P18901 1-446)” has an FRET efficiency [2] of 0.36.
